The source of these data is paper PMC10786891, “Massively parallel profiling of RNA-targeting CRISPR-Cas13d”.

T1: EsCas13d, nuclease-dead (Eubacterium siraeum, UniProt B0MS50, R295A;H300A;R849A;H854A)
T1 sequence: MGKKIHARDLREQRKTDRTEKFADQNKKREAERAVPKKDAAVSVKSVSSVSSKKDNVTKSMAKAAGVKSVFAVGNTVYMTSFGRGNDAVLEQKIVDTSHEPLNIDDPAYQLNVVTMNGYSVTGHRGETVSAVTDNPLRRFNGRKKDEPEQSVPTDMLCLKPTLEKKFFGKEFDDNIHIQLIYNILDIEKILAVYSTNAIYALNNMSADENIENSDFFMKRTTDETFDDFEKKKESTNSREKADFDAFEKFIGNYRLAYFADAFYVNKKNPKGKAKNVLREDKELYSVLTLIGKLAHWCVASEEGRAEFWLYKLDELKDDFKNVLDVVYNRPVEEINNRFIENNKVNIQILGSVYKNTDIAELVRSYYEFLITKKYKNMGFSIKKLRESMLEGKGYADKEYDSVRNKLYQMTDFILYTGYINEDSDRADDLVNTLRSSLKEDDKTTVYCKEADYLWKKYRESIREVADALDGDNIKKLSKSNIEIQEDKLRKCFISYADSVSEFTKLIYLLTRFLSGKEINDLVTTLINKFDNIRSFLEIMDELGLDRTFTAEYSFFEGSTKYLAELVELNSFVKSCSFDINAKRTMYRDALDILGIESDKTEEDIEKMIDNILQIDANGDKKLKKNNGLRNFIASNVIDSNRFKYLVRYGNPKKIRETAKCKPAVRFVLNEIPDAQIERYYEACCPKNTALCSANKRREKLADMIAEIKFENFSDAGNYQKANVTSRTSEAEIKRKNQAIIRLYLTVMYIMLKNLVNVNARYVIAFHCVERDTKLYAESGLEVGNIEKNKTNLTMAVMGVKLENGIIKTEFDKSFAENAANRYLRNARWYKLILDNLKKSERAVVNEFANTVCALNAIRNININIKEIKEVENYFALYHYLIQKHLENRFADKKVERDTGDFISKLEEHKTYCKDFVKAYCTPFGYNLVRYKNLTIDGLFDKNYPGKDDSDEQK

B1: target 1 insA 3' of 10,insC 3' of 1 (mixed)
RNA 1: CACCCGUGCAAAAAUGCAGGGGUCUAAAACUGAGCGGAUAACCUCUCUAUGG
RNA 2: GGGAAUGGAUCCACAUCUACGAAUUCGUACCAUAGAGAGGUUAAUCCGCUCACCCGAGAUCGGAAGAGCACACGU
B2: target 1 insC 3' of 22,insU 3' of 17 (mixed)
RNA 1: B1 RNA 1
RNA 2: GGGAAUGGAUCCACAUCUACGAAUUCGUACCCAUAGUAGAGGUUAUCCGCUCACCGAGAUCGGAAGAGCACACGU
B3: target 1 insA 3' of 12,insA 3' of 5 (mixed)
RNA 1: B1 RNA 1
RNA 2: B1 RNA 2 with U41A, A43U, C49A, U50C, C51U, A52C, C53A
B4: target 1 insU 3' of 14,insU 3' of 2 (mixed)
RNA 1: B1 RNA 1
RNA 2: B1 RNA 2 with G39U, U41G, A43U, A52U, C53A
B5: target 1 insG 3' of 9,insG 3' of 7 (mixed)
RNA 1: B1 RNA 1
RNA 2: B1 RNA 2 with A44G, C47G, G48C, C49G, U50C, C51U, A52C, C53A
B6: target 1 insA 3' of 10,insC 3' of 10 (mixed)
RNA 1: B1 RNA 1
RNA 2: B1 RNA 2 with A44C, U45A, C46U, G48C, C49G, U50C, C51U, A52C, C53A
B7: target 1 C7G,U8C (mixed)
RNA 1: B1 RNA 1
RNA 2: GGGAAUGGAUCCACAUCUACGAAUUCGUACCAUAGAGAGGUUACGCGCUCACCGAGAUCGGAAGAGCACACGU
B8: target 1 A18U,C22U (mixed)
RNA 1: B1 RNA 1
RNA 2: B7 RNA 2 with C30U, A34U, C44U, G45C
B9: target 1 insU 3' of 13,insG 3' of 2 (mixed)
RNA 1: B1 RNA 1
RNA 2: B1 RNA 2 with G40U, U41G, A43U, A52G, C53A
B10: target 1 insA 3' of 13,insA 3' of 13 (mixed)
RNA 1: B1 RNA 1
RNA 2: B2 RNA 2 with C32A, A33U, U34A, A35G, G36A, U37G, G41A
B11: target 1 insG 3' of 21,insA 3' of 13 (mixed)
RNA 1: B1 RNA 1
RNA 2: B2 RNA 2 with C32G, U37A, A38G, G39A, A40G, G41A
B12: target 1 insU 3' of 17,insC 3' of 3 (mixed)
RNA 1: B1 RNA 1
RNA 2: B1 RNA 2 with A36U, G37A, A38G, G39A, U41G, A43U, A52C, C53A
B13: target 1 insC 3' of 15,insG 3' of 8 (mixed)
RNA 1: B1 RNA 1
RNA 2: GGGAAUGGAUCCACAUCUACGAAUUCGUACCAUAGAGCAGGUUAUGCCGCUCACCGAGAUCGGAAGAGCACACGU
B14: target 1 A1G,U11A (mixed)
RNA 1: B1 RNA 1
RNA 2: B7 RNA 2 with U41A, C44U, G45C, A51G
B15: target 1 U3G,U10C (mixed)
RNA 1: B1 RNA 1
RNA 2: B7 RNA 2 with U42C, C44U, G45C, U49G
B16: target 1 insC 3' of 22,insC 3' of 8 (mixed)
RNA 1: B1 RNA 1
RNA 2: B13 RNA 2 with A32C, U33A, A34U, G35A, A36G, G37A, C38G, G46C
B17: target 1 A1C,U11A (mixed)
RNA 1: B1 RNA 1
RNA 2: B7 RNA 2 with U41A, C44U, G45C, A51C
B18: target 1 G12U,G13U (mixed)
RNA 1: B1 RNA 1
RNA 2: B7 RNA 2 with G39U, G40U, C44U, G45C
B19: target 1 C7G,A9C (mixed)
RNA 1: B1 RNA 1
RNA 2: B7 RNA 2 with A43C, C44U
B20: target 1 insU 3' of 13,insC 3' of 9 (mixed)
RNA 1: B1 RNA 1
RNA 2: B13 RNA 2 with C38A, A39G, G40U, U45C, G46U
B21: target 1 C4A,U8A (mixed)
RNA 1: B1 RNA 1
RNA 2: B7 RNA 2 with C44A, G45C, C48A
B22: target 1 insC 3' of 22,insA 3' of 22 (mixed)
RNA 1: B1 RNA 1
RNA 2: B2 RNA 2 with C32A, A33C, U34A, A35U, G36A, U37G
B23: target 1 insC 3' of 19,insA 3' of 17 (mixed)
RNA 1: B1 RNA 1
RNA 2: B2 RNA 2 with C32A, A33U, U34C, U37A
B24: target 1 insG 3' of 16,insU 3' of 14 (mixed)
RNA 1: B1 RNA 1
RNA 2: B13 RNA 2 with C38G, G40U, U42G, A44U, U45A, G46U
B25: target 1 insG 3' of 19,insG 3' of 19 (mixed)
RNA 1: B1 RNA 1
RNA 2: B2 RNA 2 with C32A, A33U, U34G, A35G, G36A, U37G
B26: target 1 A9C,U11A (mixed)
RNA 1: B1 RNA 1
RNA 2: B7 RNA 2 with U41A, A43C, C44U, G45C
B27: target 1 insA 3' of 10,insA 3' of 2 (mixed)
RNA 1: B1 RNA 1
RNA 2: B1 RNA 2 with C53A

Where a chain is given by its changes, count along the chain named. Names and notes keep the numbering of the source.

The series deals with T1, EsCas13d, nuclease-dead. The series is described as follows: crRNA (strand 1, pre-loaded); Mg2+; 40 mM Tris-HCl pH 7.5, 150 mM NaCl, 6 mM MgCl2, 1 mM DTT, 0.1% Tween-20, 0.2 mg/ml BSA; 25 C; 10 min per concentration, then washed. The note with it: tags: His6-TwinStrep-SUMO cleaved; N-terminal SNAP kept (SNAP-Surface 488); label: 3' end held by stalled T7 RNA polymerase.
For orientation: Kd means the equilibrium constant for the complex coming apart. A lower Kd goes with tighter binding. For B1, the Kd was determined as 12.6 ± 0.6 nM.

On to B2, for which binding was characterised by a dissociation constant (Kd) of 25.2 ± 2.7 nM.

In turn, B3 gave a Kd of 17.4 ± 1.6 nM.

B4 displayed a Kd of 57 ± 8 nM.

B5 registered a Kd of 10.7 ± 0.4 nM.

For B6, the Kd is 12.9 ± 1.3 nM.

B7: binding was characterised by a dissociation constant (Kd) of 10.7 ± 0.4 nM.

Take B8: the Kd was determined as 74 ± 10 nM.

Molecule B9 came in with a Kd of 21 ± 4 nM.

Molecule B10 had a Kd of 7.9 ± 0.4 nM.

For the molecule B11, the Kd is 44 ± 5 nM.

As to B12, the equilibrium dissociation constant (Kd) turned out to be 29 ± 5 nM.

B13 gave a Kd of 23.3 ± 2.2 nM.

B14 showed a Kd of 34 ± 4 nM.

Regarding B15, the Kd came to 14 ± 0.6 nM.

In turn, B16 returned a Kd of 18 ± 1.8 nM.

With B17, binding was characterised by a dissociation constant (Kd) of 44 ± 10 nM.

B18: binding was characterised by a dissociation constant (Kd) of 7.2 ± 0.5 nM.

B19 returned a Kd of 9.26 ± 0.33 nM.

Molecule B20 showed a Kd of 18.8 ± 2.4 nM.

Turning to B21, the Kd stood at 25.3 ± 2.1 nM.

The molecule B22 gave a Kd of 10 ± 0.9 nM.

B23: the Kd was 49 ± 7 nM.

The molecule B24 returned a Kd of 25.4 ± 2.4 nM.

Turning to B25, binding was put at a Kd of 56 ± 15 nM.

In the case of B26, binding was put at a Kd of 59 ± 13 nM.

In turn, B27 returned a Kd of 14 ± 0.8 nM.
